Source: patent US5493008A, “Two non-contiguous regions contribute to nidogen binding to a single EGF-like motif of the laminin γ1 chain” (The University Of Virginia Patent Foundation, priority 1994, dated 1996)
Like-named read-outs stand apart in the source and are kept apart here. Where no end group is shown, it is not given here. The star is where a group is joined. Nle‑OMe = norleucine methyl ester coupled to carboxyl groups via carbodiimide, CCCC[C@H](N*)C(=O)OC; Succinimide(1-Et,3-yl) = CCN1C(=O)CC(*)C1=O

Columns and labels:
[1] = target: T1, recombinant nidogen (Mus musculus (Mouse), UniProt P10493); experiment: radioligand competition assay: inhibitor varied, 0.2 nM recombinant nidogen, 125I-laminin fragment P1
T1 sequence: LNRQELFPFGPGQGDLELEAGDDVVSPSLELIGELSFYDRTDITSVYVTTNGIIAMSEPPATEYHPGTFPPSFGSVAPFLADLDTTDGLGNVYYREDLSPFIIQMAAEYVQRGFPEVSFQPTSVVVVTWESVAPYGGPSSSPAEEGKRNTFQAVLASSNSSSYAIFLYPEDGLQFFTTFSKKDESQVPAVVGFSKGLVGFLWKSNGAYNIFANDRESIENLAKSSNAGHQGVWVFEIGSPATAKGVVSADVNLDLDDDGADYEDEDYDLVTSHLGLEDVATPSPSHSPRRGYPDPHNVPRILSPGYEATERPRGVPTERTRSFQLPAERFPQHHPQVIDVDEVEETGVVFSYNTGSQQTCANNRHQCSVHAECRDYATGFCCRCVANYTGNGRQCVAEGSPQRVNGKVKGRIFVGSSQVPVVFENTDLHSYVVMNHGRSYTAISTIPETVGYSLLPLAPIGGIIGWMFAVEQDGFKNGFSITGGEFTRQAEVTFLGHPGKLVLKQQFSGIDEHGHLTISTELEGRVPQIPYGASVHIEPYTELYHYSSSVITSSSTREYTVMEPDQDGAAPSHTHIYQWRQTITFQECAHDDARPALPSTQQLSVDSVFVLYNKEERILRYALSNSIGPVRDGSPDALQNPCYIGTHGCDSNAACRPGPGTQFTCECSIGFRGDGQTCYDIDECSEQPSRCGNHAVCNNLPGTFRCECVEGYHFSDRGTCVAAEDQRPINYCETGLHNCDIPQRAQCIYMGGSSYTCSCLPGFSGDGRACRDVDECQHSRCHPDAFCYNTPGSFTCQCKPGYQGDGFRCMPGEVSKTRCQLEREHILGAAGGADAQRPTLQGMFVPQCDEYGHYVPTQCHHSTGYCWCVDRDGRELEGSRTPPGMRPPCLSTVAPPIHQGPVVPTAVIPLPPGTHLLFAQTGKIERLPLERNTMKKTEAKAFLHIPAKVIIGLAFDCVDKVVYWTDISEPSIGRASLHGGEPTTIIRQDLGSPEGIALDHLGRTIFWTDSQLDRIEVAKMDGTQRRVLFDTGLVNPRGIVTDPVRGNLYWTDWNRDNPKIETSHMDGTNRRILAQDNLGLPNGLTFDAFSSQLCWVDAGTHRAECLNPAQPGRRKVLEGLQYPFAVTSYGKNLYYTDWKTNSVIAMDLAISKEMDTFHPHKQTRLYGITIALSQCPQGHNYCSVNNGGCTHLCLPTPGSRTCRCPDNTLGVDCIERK
Method: (§1) A radioligand competition assay was used for measurement of relative binding affinities (Mann K. et al. (1988), Eur. J. Biochem., 178, 71–80; Fox, J. W. et al. (1991), EMBO J., 10, 3137–3146). A fixed concentration of recombinant nidogen (0.2 nM) was incubated overnight at 4° C. with inhibitors at varying concentrations, followed by the addition of ^125I-labeled laminin fragment P1 (0.01 nM; 10,000–20,000 c.p.m.) for the same incubation period. Bound and non-bound fragment P1 was then separated by antibodies against nidogen.

[2] = target: T1, recombinant nidogen; experiment: as above; remark: listed apart in the source
Method: as §1

[3] = target: T2, nidogen (Mus musculus, UniProt P10493); experiment: Radioligand competition assay: inhibition of 125I-laminin fragment P1 binding to nidogen
T2 sequence (P10493 29-1245): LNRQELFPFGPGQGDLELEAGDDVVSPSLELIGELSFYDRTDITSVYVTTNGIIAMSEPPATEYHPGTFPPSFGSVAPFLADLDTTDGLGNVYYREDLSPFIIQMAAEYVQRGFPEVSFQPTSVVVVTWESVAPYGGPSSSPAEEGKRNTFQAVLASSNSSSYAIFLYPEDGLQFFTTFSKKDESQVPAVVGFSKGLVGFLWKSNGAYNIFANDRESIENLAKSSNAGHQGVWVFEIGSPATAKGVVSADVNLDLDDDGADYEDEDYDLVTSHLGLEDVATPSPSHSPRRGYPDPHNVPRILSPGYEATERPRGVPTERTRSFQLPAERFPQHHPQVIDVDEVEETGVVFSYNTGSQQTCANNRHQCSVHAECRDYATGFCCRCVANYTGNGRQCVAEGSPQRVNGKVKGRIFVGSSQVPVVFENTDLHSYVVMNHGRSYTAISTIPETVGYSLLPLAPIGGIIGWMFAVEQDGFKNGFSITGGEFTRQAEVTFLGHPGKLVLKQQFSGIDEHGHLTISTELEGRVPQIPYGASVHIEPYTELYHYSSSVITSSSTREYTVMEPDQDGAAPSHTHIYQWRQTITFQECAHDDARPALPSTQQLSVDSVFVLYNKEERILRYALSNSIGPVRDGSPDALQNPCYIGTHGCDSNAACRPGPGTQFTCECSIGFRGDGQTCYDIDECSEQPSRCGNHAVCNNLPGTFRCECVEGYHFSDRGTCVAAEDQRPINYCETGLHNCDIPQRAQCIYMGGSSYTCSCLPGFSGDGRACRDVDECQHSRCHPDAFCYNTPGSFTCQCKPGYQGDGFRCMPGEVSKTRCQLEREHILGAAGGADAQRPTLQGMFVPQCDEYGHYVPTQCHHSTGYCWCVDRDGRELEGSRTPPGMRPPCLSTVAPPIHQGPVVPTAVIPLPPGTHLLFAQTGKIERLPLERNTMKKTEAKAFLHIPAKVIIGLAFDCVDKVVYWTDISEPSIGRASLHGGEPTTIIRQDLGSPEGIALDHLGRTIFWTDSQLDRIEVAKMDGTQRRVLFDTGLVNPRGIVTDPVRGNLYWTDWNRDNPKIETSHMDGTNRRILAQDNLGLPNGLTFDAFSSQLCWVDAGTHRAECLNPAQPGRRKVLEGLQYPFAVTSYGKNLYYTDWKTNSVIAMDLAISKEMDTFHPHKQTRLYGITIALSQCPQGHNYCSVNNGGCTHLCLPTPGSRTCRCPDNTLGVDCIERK
Method: as §1, with “71-80;” for “71–80;”, “3137-3146).” for “3137–3146).”, “^125 I-labeled” for “^125I-labeled”, “10,000-20,000” for “10,000–20,000”, “nidogen. Competitor concentrations causing 50% inhibition (IC50) were determined from dose-response profiles. […] IC50 values compared from different assays were normalized to a single fragment P1 value.” for “nidogen.”

[4] = target: T1, recombinant nidogen; experiment: radioligand competition assay
Method: as §1

[5] = target: T1, recombinant nidogen; experiment: radioligand competition assay: inhibitor varied, 0.2 nM recombinant nidogen, 125I-laminin fragment P1; remark: listed apart in the source
Method: as §1

B1: γ1III4D800-N (other)
chain: PCQCNDNINPNAVGNCNRLTGECLKCIYNTAGFYCDRCKEGFFGNPLAPNPADKCK
B1 showed an IC50 [1] of 1000 nM.

NIDPNA [NIDPNA (S, 798-803)]: no binding (tested: >460,000 nM) [2].

NVDPSAS: no binding (tested: >290,000 nM) [2].

B2: γ1III4ab3cd, reduced (other)
chain: PC(Succinimide(1-Et,3-yl))QC(Succinimide(1-Et,3-yl))NDNIDPNAVGNC(Succinimide(1-Et,3-yl))NRLTGEC(Succinimide(1-Et,3-yl))LKC(Succinimide(1-Et,3-yl))PTGTAGKRC(Succinimide(1-Et,3-yl))ELC(Succinimide(1-Et,3-yl))DDGYFGDPLGSNGPVRLC(Succinimide(1-Et,3-yl))R
B2 gave an IC50 [1] of 520 nM.

B3: γ1III3-5Δ4: recombinant deletion mutant joining repeats 3 and 5, lacking EGF-like repeat 4 (protein)
chain: PCPCPGGSSCAIVPKTKEVVCTHCPTGTAGKRCELCDDGYFGDPLGSNGPVRLCRACACNPYGTVQQQSSCNPVTGQCQCLPHVSGRDCGTCDPGYYNLQSGQGCE
For B3, the IC50 ([3]; Table IV, recombinant mutants and chimeric structures of γ1III4, read-out: IC50 (inhibitory activity for laminin-nidogen binding)) was greater than 3200 nM and the “inhibitory activity in words” value ([3]; laminin-nidogen binding competition) was “without measurable activity”.

AVGNCNR [Th1, 803-809]: no binding (tested: >30,000 nM) [2].

B4: synthetic loop a,b, amidated (792-815) (peptide)
peptide: PCQCND(Nle‑OMe)NTD(Nle‑OMe)PNAVGNCNRLTGE(Nle‑OMe)CL
modifications: not fully specified; cysteine pairing not given here; also: carboxyl groups of Asp and Glu blocked with norleucine methyl ester (amidation), sites not placed
B4 was tested, and the IC50 [2] was greater than 5400 nM.

B5: γ1III3-5, Lys acetylation (other)
chain: PCPCPGGSSCAIVPKTKEVVCTHCPTGTAGKRCELCDDGYFGDPLGSNGPVRLCRPCQCNDNIDPNAVGNCNRLTGECLKCIYNTAGFYCDRCKEGFFGNPLAPNPADKCKACACNPYGTVQQQSSCNPVTGQCQCLPHVSGRDCGTCDPGYYNLQSGQGCE
modifications: lysine amino groups acetylated with acetic acid anhydride
With B5 the IC50 [2] was 0.27 nM and the “fold decrease in binding activity against unmodified γ1III3-5” value [4] was 7 fold.

B6: γ1III3-5, Asp/Glu amidation (other)
chain: PCPCPGGSSCAIVPKTKEVVCTHCPTGTAGKRCELCDDGYFGDPLGSNGPVRLCRPCQCNDNIDPNAVGNCNRLTGECLKCIYNTAGFYCDRCKEGFFGNPLAPNPADKCKACACNPYGTVQQQSSCNPVTGQCQCLPHVSGRDCGTCDPGYYNLQSGQGCE
modifications: carboxyl groups (Asp, Glu) activated with 1-ethyl-3-dimethylaminopropylcarbodiimide and blocked by norleucine methylester
B6 was tested, and the IC50 [2] was 2.1 nM.

B7: recombinant fragment γ1III3-5 (other)
chain: PCPCPGGSSCAIVPKTKEVVCTHCPTGTAGKRCELCDDGYFGDPLGSNGPVRLCRPCQCNDNIDPNAVGNCNRLTGECLKCIYNTAGFYCDRCKEGFFGNPLAPNPADKCKACACNPYGTVQQQSSCNPVTGQCQCLPHVSGRDCGTCDPGYYNLQSGQGCE
B7 showed an IC50 [2] of 0.04 nM.

Molecule NVDPNAV has an IC50 [5] of 1200 nM.

PCQCN [E3, 792-796]: no binding (tested: >96,000 nM) [2].

NIDPNAVGN [NIDPNAVGN (S, 798-806)] gave an IC50 [2] of 600 nM.

Work on DNIDPNAVGNCNRLTGECL [E1, 797-815] yielded an IC50 [2] of 530 nM.
